KELISA (mOD/min) data for 1 substance are collected here from US7255862.

Assay [1] has as its target feline immunodeficiency virus (FIV) Gag, Villefranche strain, expressed by ALVAC recombinants (vCP21 (feline immunodeficiency virus, Villefranche strain)). Description: sandwich kinetic ELISA, plate coated with pooled FIV env-specific MAb 2 ug/well (mismatched capture control), gag lysate 0.2 ug/well, control rabbit serum 1:100. On the technique in general: ELISA stands for enzyme-linked immunosorbent assay.

Assay [2] has the same target. Description: sandwich kinetic ELISA, plate coated with pooled FIV env-specific MAb 2 ug/well (mismatched capture control), gag lysate 1 ug/well, control rabbit serum 1:100.
Assay [3] has the same target. Description: sandwich kinetic ELISA, plate coated with pooled FIV env-specific MAb 2 ug/well (mismatched capture control), gag lysate 5 ug/well, control rabbit serum 1:100.
Assay [4] shares this target. The experiment in a line: sandwich kinetic ELISA, plate coated with pooled FIV gag-specific MAb 2 ug/well, gag lysate 5 ug/well, control rabbit serum 1:100.
The target is the same in assay [5]. The experiment in a line: sandwich kinetic ELISA, plate coated with pooled FIV gag-specific MAb 2 ug/well, gag lysate 0.2 ug/well, control rabbit serum 1:100.
Assay [6] shares this target. The experiment in a line: sandwich kinetic ELISA, plate coated with pooled FIV gag-specific MAb 2 ug/well, gag lysate 1 ug/well, control rabbit serum 1:100.

On to Rabbit A039 prebleed serum, for which the KELISA (mOD/min) amounted to 0.9 mOD/min in assay [1]; 0.8 mOD/min in assay [2]; 1 mOD/min in assay [3]; 1 mOD/min in assay [4]; 1.3 mOD/min in assay [5]; 1.2 mOD/min in assay [6].
